Assay results reported in the DeepSol protein solubility set.

Experiment: soluble on expression in E. coli; label from the status in PepcDB or PDB records

| Sequence | soluble on expression in E. coli |
| --- | --- |
| MPLTTNTILICAGGACISAGEKSVKDAFEEELRKYGLDEVVRVIETGCMGACTLGPIAVIYPESVFYQKLTPDAAREIVEEHILKGRIVEKYLYKASEGKPVPRVHEEVPFFKKQVRIVTRNLGVIDPTKIEEYIARDGYFALAKALQMKPEDVIKEIKDSGLRGRGGAGFPTGLKWELAARQKAEKKFVVCNADEGDPGAFMDRSVLEGDPHAVIEGMAIAAYAIGAQKGFVYVRAEYPLAIERLNIALNQAREYGFLGGNIMGTDFSFDIEIRIGAGAFVCGEETALMASIEGERGQPKVKPPYPVEKGLWGYPTVINNVETLANVPWIIRNGAKEFRKYGTENSPGTKVFALAGKVKNTGLVEVPMGITLRELIYEIGGGIAGDKKLKAIQTGGPSGGCIPAEYVDTPVDFESLQKLGAIMGSGGMIVMDEDDCMVDVARFFLEFTVEESCGKCTPCREGTKKMLEILEKITSGEGTEEDIEELEKLAHVVKDTSLCGLGQTAPNPVLSTLRYFRDEYLAHVKEKRCPSKKCKALISYVIDPEKCVGCTACARVCPVQCISGQVRQPHVIDQAECVRCGSCIEVCRFGAISKVTPALPVEEAVEAAALEHHHHHH | not soluble |
| MDALQAYGGSDSEHSDDDASMDQVAKGKSSTLLERAIVTAPDVESKSAIRQVAIVDPKTKEIKSNPKFDQLFKPESGPVNHFKSEQQRSQKNTLTGFVEPAHLNEFHFNRQIRSFDTLGYAQNPTAESGTTHFVGDVKKAEAEKGVSLFESKKTGGEKRKRVRNDDSADIDGYTGPWSRFIDEKTVAKPTPELQKQMDEIVKKRQEKSRRFKKEKEDSEQMAEESSTLHLKEAEDYQGRSFLVPPSFTGVNLREDYVPERCFVPKKLVHTYRGHNKGVNFLQWFPKSAHLFLSCSMDTKIKLWEVYDRQRVVRTYAGHKLPVREVAFNNEGTEFLSASFDRYVKLWDTETGQVKQRFHTGHVPYCLKYHPDDDKNHMFLVGMQNKKIIQWDSRSGEIVQEYDRHLQAVNSITFFDKNRRFASTSDDKSVRIWEWEIPVDTKLIQNVGLHAIPTMTKSPNDKWVVGQCMDNRIVLFQLVDDKLRFSKKKAFRGHNAAGYACNIDFSPDQSFLISGDADGKLFIWDWRTHKIVGKWKAHDSTCIAALWHPHEKSRMITAGWDGLIKMWN | soluble |
| MESSVDEEALHQLYLWVDNIPLSRPKRNLSRDFSDGVLVAELIKFYFPKMVEMHNYVPANSLQQKLSNWGHLNRKVLNKLNFSVPDDVMRKIAQCSPGVVELVLIPLRQRLEERQRRQKLGVGSLQELAPQDSSGYMDMGLPQKVRGEGAPALGEQLREGRPLASRPPGYNQALQGDPSFVLQIAEKEQELLASQETVQVLQMKVKRLEHLLQLKNVRIDDLSRRLQQAERKQR | soluble |
| MGSDKIHHHHHHQEQVKVVDRTIRIGDAMEHPVPMKLSAFVDSITYVPLETTKSYVKDKMLISYVKPYWGVYPGSLFDKEGRFVANIGALGQGPGEESGFGYSIFYDRDRNIFYTQGDKIIQFDAKGKFTGKEIRIAYRDKGIEGKIASGLKNVYAMVKSGKDYLIVNYPDSIFWMDAELNVRHGDRIISDSLFLTPSGVGGGMPYTFSDYKDTTIFYNCFTDAIYTVTDTGLQKRWTLEFKGSKADNRCFLNDYKKLYLDEYVKIVSSSKGNVETMKEKAQNSELAQLIDNKKWVYHVSEGERYLFLWWLNLKAFSSAWRGYNESHIALYDKRTGEAVAIAGDGLIDDIDNGMTFFPRYGICNNAMVSSVWPFELKEYIQEKKAKGEAVSDRLIALADSLDDEQNPILVIAHLKK | not soluble |
| MKELNDLEKKYNAHIGVYALDTKSGKEVKFNSDKRFAYASTSHAINSAILLEQVPYNKLNKKVHINKDDIVAYSPILEKYVGKDITLKALIEASMTYSDNTANNKIIKEIGGIKKVKQRLKELGDKVTNPVRYEIELNYYSPKSKKDTSTPAAFGKTLNKLIANGKLSKENKKFLLDLMLNNKSGDTLIKDGVPKDYKVADKSGQAITYASRNDVAFVYPKGQSEPIVLVIFTNKDNKSDKPNDKLISETAKSVMKEF | soluble |
| MAHHHHHHMRPSSHRRPKSSAASDVGRRIRYSDAPPWDRSIRVNGDRALSAGRASRRGPEMMKAKLQGTPARPSHCNLVTTQAATLVATVPPVNEPQVELMSQLQDVVVRLSQSAVGEKQRLAHMQQRLDAYAALMREQDRMIDELRGMNIRLQKERDALILFRQQSLNHDLHLMNNLENDGGIDEEARRAYAKYEGQNNSYGTPCNGSLGAMTPRSRGFVRSLVAQLRDERRKRLEVEEQSSRMIGEQQLTIQRLEDRLRPQVVAPRSVLVARLESPHVSSHQRASNEEKDAVNTPLQCPCVDSVSAPMSSPNFSVVNQEKRLTEVNPMAPAVPPIPLPERNKEAVITEQVHQSPAVSMDQQITPPLEVPLKIHSTSYDDAAAILFDIRKRHGL | not soluble |
| MAHHHHHHMNSGYPGPSGITVGSPGLPPGSLGSPFPEQMTSAHSSDGMQGSNASQVPLTIHADVDQHSKSHSPTLTSGVEVLFATHQPPVAGVNAPWDEDDDWSTPGAPAQHPASVGAPAKPPLPPGNNAPPPILIAEQMNPGSPAEPHPTPVAMSPPPSSDGFIASSSRAGSPNCPPTPLEKPSAANVAKVDALMKQIASRTAAMDAATKEKEMKIVTAAQEYLKALMAKRGEEVMNAKAIHKEEQQVGAEKINEHKKSGDVWSAVGLLVDLQKPNQYSRSTEQMRTVLSALNATPAKK | soluble |
| MEGLLMYDVHSKHADDFISHEEILETLAYADENKTNEALIDSILEKARLRKGLSHREASVLLACPIEEKNQEIYRLAEQIKKDFYGNRIVMFAPLYLSNYCVNGCTYCPYHLKNKHIARKQLTQEEIRKEVIALQDMGHKRLALEAGEDPVRNTIDYYLESIKTIYSIKHKNGAIRRVNINIAATTVDNYRLLKEAGIGTYILFQETYHKESYLALHPTGPKHDYNYHTEAMDRAMEGGIDDVGIGVLFGLDKYRYEFAGLLMHAEHLEAAFGVGPHTISVPRLRHADDINADEFDNGIDDDTFAKIVACIRIAVPYTGMIISTRESQKCRERVLHLGVSQISGGSRTSVGGYCEPEPDDAKSEQFDVSDTRTLDEVVRWLMEMDYIPSFCTACYREGRTGDRFMSLCKSGQIQNCCHPNALMTLKEYLMDYASPETKAIGDRLIDKEVLNVPNEKARAVVLENLRLIEQNNRRDFRF | not soluble |
| SLQLRPSFLLSSLRPSLTGARRLVETIFLGSRPWMPGTPRRLPRLPQRYWQMRPLFLELLGNHAQCPYGVLLKTHCPLRAAVTPAAGVCAREKPQGSVAAPEEEDTDPRRLVQLLRQHSSPWQVYGFVRACLRRLVPPGLWGSRHNERRFLRNTKKFISLGKHAKLSLQELTWKMSVRDCAWLRRSPGVGCVPAAEHRLREEILAKFLHWLMSVYVVELLRSFFYVTETTFQKNRLFFYRKSVWSKLQSIGIRQHLKRVQLREEG | not soluble |
| MEKRNIQVTRHFVCADQLQQISETVIACLGQEDLITISGGLGPISDDKTRDAVAKAVRQPLFHHEDVWQTIKGQLGWLGSTPDSNNARQALFPETAKVLDNPTGTAPGFYLSCGESILVILTGSLTQAFALLENYLEHGEKKYSSVSRARYAWILIGIDESAIAHWVDCQLANELFERHFYGKALMFSYNWLASHQRFWLSI | not soluble |
| MAALTASCIDLNIQGNGAYSVLKQLATIALQNGFITDSHQFLQTLLLREKMHSTGFGSGVAVPHGKSACVKQPFVLFARKAQAIDWKASDGEDVNCWICLGVPQSGEEDQVKIIGTLCRKIIHQEFIHQLQQGDTDQVLALLNQTLSS | not soluble |
| MSLDQPVVGLITKTDTNPFFVKMKQGAEAAASKDGAKLITAAGKFDGDNASQVTAIENMMTAGAKAILITPSDTKAIVPSIKKARAAGVMVVALDTPTDPQDATDALFATDNFKAGVLIGKYAKAALNGKPAKIATLDLAPGVSVGVLRHNGFLEGFGVKEGDPSVVCSQDTRGDQAKGQTAMENCLQKSPDINVVYTINEPAAAGAYRALKAAGKDKSVMIVSIDGGCEGVRNVKAGAIAATSQQYPLKMASLGVTAGVEYAKTGKKVSGYQDTGVTLITDKPMAGIDSKDTKFGLDNCWGNEGHHHHHH | soluble |
| GMTGLSQSQASPMQIQPGNAAFNPWTDAALDTIRDVNQALTLYAEMRVVPAHHDAFLAAIDTVSAKLRVLPGFLSLALKQMSGDSTMVKNYPETYKGVLATAYLDGVAAGTQPYFYNLFVRFADGRAARAAGFEALFETHIHPLLHAMAPRGGDGPELLAYRAVLQSVVAGDRHAIYRGAEEIRSFLRRPVELPERETVTVENHVMVPEDKHAAWEPQVAILLQVAQDTFEPQDEPSGVGLPGARDNRYYRKALSTEILRNAHADGGLRAYIMHGVWESVWDHENSHLDPRFLAAAGPVGAAAVVGPVEPFYLTRRLVVAD | soluble |
| MAQINFEGLRELHDCVNYLLHHCPKTRESLSQQGQEKWTEQVSEASLRMLDICNVSKDVMTLVKHSLQDLQLTLRGNESSDVNEKIAAYNRYKNKLKKETLKCLNCLKNMKGNEGRVAMPIEQNLLFVTEVLKEVRRVVVTMVESLFSLGCIPWLEKRSSKGSLSSIFSIRSSYLLDDEWDETAVQSATTRLEAAEITVVELEIELESIFRRLIQTRVSLLNILTN | soluble |
| MRSAIAAPILFLLVSFFVQECESVGFAPELYCGLENCYDVLEVNREEFDKQKLAKAYRALARKHHPDRVKNKEEKLLAEERFRVIATAYETLKDDEAKTNYDYYLDHPDQRFYNYYQYYRLRAAPKVDL | not soluble |
| MSLDLKLGGQVILVVGGAGTIGSEVVKLLTEEGATAVAASRSTPLSIDASDEASVRAGIDQVIAEHGRLDGLVVSSAPAAQTLSAETADDPDTVLAAIEGKAITFMKAATVALEKMREAGHGRIVALSGMNSYKTLSTTASARNAALNVVVKNLADRHAGTGITVNAISPGFVVAEPDAEVNRANGDTTVEEVAEAIAFLLSPRTASISGEIISVGHKAKGEGHHHHHH | not soluble |
| MGDICETVEATFHGVAYLLTVSTIEGETLCVEVEQKSDCSRWRGDFTSRYIEDITAKTGNFKKFPVFVKMLLSALKQASDSVFVDLLTYQDLEVLKSRKAGGQAPPPRTQPPNNKRYLIMTYAAEFDRVHYPLPLLFEENPDPQHLKRIISQLRSEVEGLQVEAGNRRGGEVSAELRRLREENAALQRQLKQMERSGSGVGAGAESSEARELARELRTVRKERDLLQARVEAAEAELERERGLHRRELRRRAKEQQELVDELGRCKEQIRELKMRIRQLTEDLEARDRRMNSTDRIRSVYARGSNDGSTSGVAPRRPSSGGRGPSSNYMAPTRGADSRSNSRGRGTSSAERSRPNSAPIGGPRPRFDPTEYVRQRKERESAAVGGRRSNAPTPPRSAGTSRASSVVGSRPASAERLPPIRTASPTNSRPSSTERYRPGSGGPPGRTSAGGSRGAADRAGARGPDPYAPRSRGASPSGRATAWGEPGASGGGAGGWSKFPGGGGGGVGGSGQRISSNSPRSMSPARALAEVKQKLSTFVAGRGGSLQGDDASSAHGEHMSQSSKSQVFEDATAEIADIDSRLHALQDFLRMAKTSSTSTSTTQA | not soluble |
| MNEVKLSKRLEEVVREIPVGSTVADIGSDHAYLPCYTIINNIATKAVAGEVVDGPFRSAQATVAESGLQDKVDVRKGNGLAVIAPGEVDVITVAGMGGALIRDILESGKEKLEGVTRLILQPNIAAHHIREWFIENGWELIHEKIVKEDGKIYEILVGERGNVAAPYSENKQAELFMGPFLITEKSEAFVEKWEGELKNFQNILKQLERAADSEETKAKRGEVEAKMKMIGEVLS | not soluble |
| SSESESGGDFHEMREPRIEKVVVHMGIGHGGRDLANAEDILGEITGQMPVRTKAKRTVGEFDIREGDPIGAKVTLRDEMAEEFLQTALPLAELATSQFDDTGNFSFGVEEHTEFPSQEYDPSIGIYGLDVTVNLVRPGYRVAKRDKASRSIPTKHRLNPADAVAFIESTYDVEVSE | soluble |
